For one molecule, IC50, % Inhibition and EC50 results are on record in patent publication US20170145086A1.

By IC50 is commonly meant the point on the concentration scale where inhibition reaches its midpoint. Lower therefore signals greater potency. As a reminder, the % Inhibition is the drop in the measured response relative to a control, in per cent. One may read the EC50 as the concentration at which the effect is half-maximal. High values mean lower potency in that assay, low ones higher potency in that assay.

The target in assay [1] is HA-GCN4 hAPRIL (amino acid residues 105-250) (human) (UniProt O75888). The assay can be described thus: blocking ELISA; blocked: APRIL binding to TACI-Fc. Background: In an ELISA, binding on a coated surface is turned into a signal by an enzyme label.
For assay [2] the target is unchanged. The assay can be described thus: blocking ELISA, 4-parameter fit; blocked: human APRIL binding to human TACI-Fc.
The target is the same in assay [3]. The experiment in a line: blocking ELISA; blocked: human APRIL binding to human BCMA-Fc.
The target is the same in assay [4]. The experiment in a line: indirect ELISA, purified antibody, 3-parameter fit.
Assay [5] shares this target. The experiment in a line: blocking ELISA, 4-parameter fit; blocked: human APRIL binding to human BCMA-Fc.
The target is the same in assay [6]. The assay can be described thus: blocking ELISA; blocked: human APRIL binding to human TACI-Fc.

Chain of HA-GCN4 hAPRIL (amino acid residues 105-250) (human) (O75888 105-250): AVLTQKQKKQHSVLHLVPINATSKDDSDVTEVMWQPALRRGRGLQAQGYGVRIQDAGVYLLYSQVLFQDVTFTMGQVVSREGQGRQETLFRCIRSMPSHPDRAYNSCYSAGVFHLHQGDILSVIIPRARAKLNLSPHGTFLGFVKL

B1: 0201 (antibody, from another filing)
scFv: EVQLVQSGAEVKKPGASVKVSCKTSGYTFTDNYMHWVRQAPGQGLEWMGWISPNSSTTLYAQKFRGRVTLTRDTSVSTAYMELSGLDSDDTALYFCARGGRLAGSTVFTPAFEYWGRGTMVTVSSGGGGSGGGGSGGGGSAQAVLTQPSSVSEAPRQRVTISCSGSSSNIGNNAVKWYQQLPGKAPKLLIYYDDLLPSGVSDRFSGSKSGTSASLAISGLQSEDEADYYCAAWDDSLNGYVFGTGTKVTVLG
As to B1, the IC50 in assay [1] is 0.204 mg/L; in assay [2] it was 2.85 nM; in assay [5], 3.14 nM. Besides, the % Inhibition in assay [3] and in assay [6] was 99% throughout. Moreover, the EC50 in assay [4] is 0.0104 mg/L.
